FireProtDB (doi:10.1111/j.1432-1033.1994.tb18652.x)

B1: Guanyl-specific ribonuclease T1, P00651 (parent)
chain: MMYSKLLTLTTLLLPTALALPSLVERACDYTCGSNCYSSSDVSTAQAAGYQLHEDGETVGSNSYPHKYNNYEGFDFSVSSPYYEWPILSSGDVYSGGSPGADRVVFNENNQLAGVITHTGASGNNFVECT

Variants of: B1
Settings: Aspergillus oryzae (strain ATCC 42149 / RIB 40), pH 6, Thermal, DSC, sodium acetate calcium acetate 20 mM 2 mM, Mops 50 mM, reversible: yes, structure 1RN1, whole UniProt chain shown; for ddG of mutation (higher = less stable) / heat capacity change of unfolding / unfolding free energy: 25 °C

Row | Variant | ddG of mutation (higher = less stable) [kcal/mol] | heat capacity change of unfolding [kcal/mol/K] | unfolding free energy [kcal/mol] | Tm [°C] | change of melting temperature, mutant - wild type (higher = more stable) [°C] | unfolding enthalpy (calorimetric) [kcal/mol]
1 | Y68W W85Y | 1.03 | 0.98 | 6.76 | 53.7 | -3.5 | 91.8
2 | H66T | 0.26 | 0.98 | – | 56.7 | -0.5 | 100
3 | W85Y | 0.93 | 0.98 | 6.88 | 54.3 | -2.9 | 91.8
4 | Y50W | -1.24 | 0.98 | 9.03 | 58.8 | 1.6 | 106
5 | Y71W | – | 0.98 | 8.56 | 55.9 | -1.3 | 107
6 | H66T W85Y | 0.93 | 0.98 | 6.88 | 53.9 | -3.3 | 92.5
7 | W85Y H118A | 1.53 | 0.98 | 6.26 | 53.2 | -4 | 87
8 | H118A | 0.62 | 0.98 | 7.19 | – | – | –
9 | Y71W W85Y | 0.91 | 0.98 | 6.91 | 52.8 | -4.4 | 95.1
10 | Y50W W85Y | -0.29 | 0.98 | 8.1 | 56.6 | -0.6 | 101
11 | Y68W | 0.14 | 0.98 | 7.67 | 56.6 | -0.6 | 96.1
